# Experimental data: the nanobody polyreactivity screen of Harvey et al. (2022)
# Assay: yeast display, Sf9 membrane polyspecificity reagent, FACS + sequencing; frameworks hold sequencing errors
# How it was run: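 Synthetic nanobody libraries on Saccharomyces cerevisiae BJ5465 were galactose-induced for 36–48 hours, stained 1 hour at 4 °C with 10% biotinylated, detergent-solubilized Sf9 membrane reagent and enriched on streptavidin microbeads. FACS then separated cells into low and high (top ~1%) gates by anti-HA (expression) and streptavidin (reagent binding) fluorescence. Genes were colony-PCR amplified, MiSeq 2 × 250 sequenced and CDR-length filtered. A clone's polyreactivity label is that of its gate of origin.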
row,Sequence,polyreactivity (PSR sort gate)
1,QVQIVESGGGLVQAGGSLRLSCAASGITFYGYAMGWYRQAPGKERELVAVITSSRSSTYYADSVKGRFTISRDNAKNTFFLQMNSLKPEDTEVYYCNPRPGRRSLRSRTYDYWGQGTQVTVSS,high polyreactivity
2,QVQLVESGGGLVQAGGSLRLSCAASGRIFYGYTMGWYRQAPGKERELVASITIRGSRTYYADSVKGRFTISRDNAKNTVYLQMNSLKPEDTAVYYCAADFVPARTVHRYDYWGQGTQVTVSS,low polyreactivity
3,QVQLVESGGGLVQAGGSLRLSCAASGRTFYVYAMGWYRQAPGKERELVAAISWRGGSTYYADSVKGRFTISRDNAKNTVYLQMNSLKPEDTAVYYCATAGGDWYGVDYWGQGTQVTVSS,low polyreactivity
4,QVQLVESGGGLVQAGGSLRLSCAASGFTFYSYAMGWYRQAPGKERELVAGISRSGGSTYYADSVKGRFTISRDNAKNTVYLQMNSLKPEDTAVYYCNVRLRKKIQNSKYDYWGQGTQVTVSS,high polyreactivity
5,QVQLVESGGGLVQAGGSLRLSCAASGFTFVFYAMGWYRQAPGKERELVAAISSGGGGTYYADSVKGRFTISRDNAKNTVYLQMNSLKPEDTAVYYCNTRYHKVYYGNDYWGQGTQVTVSS,high polyreactivity
6,QVQLVESGGGLVQAGGSLRLSCAASGSTFGSYTKGWSRPAPGQERELVAAINWSGGNTYYADSVKGRFTISRDNAKNTVYLQMTSLKREDTAVYYCAAAFYIYGVEGDYWGQGTQVTVSS,low polyreactivity
7,QVQLVESGGGLVQAGGSLRLSCAASGSIFGWYAMGWYRQAPGKERELVAAIDSATSTYYADSVKGRFTISRDNAKNTVYLQKNSLKPEDTAVYYCAVYSWWIDAEYDYWGQGSQVTVSS,low polyreactivity
8,QVRLVESGGCLVQAGGSLRLSCAASGSTFRRYAMGWYRQAPGKERELVAAITVGGGSTYYADSVKGRFTISRDNAKNTVYLQMNSLKPEDTAVYDCSVSRYPYFRYDYWGQGTQVTVSS,high polyreactivity
9,QGQLVESCGGLVQAGGSLLLSCAASGRIFRSYAMGGYRPAPGKERELVASMSTGGSTNYADSVKGRFTFSRDTAKNSGYLQKNRLKPEDTAVYYCAAGPYYKYWGQRYNYWGQGTQVTVSS,high polyreactivity
10,QVQLVESGGGLVQAGGSLRLSCAASGSIFYRYAMGWYRPAPGKERELVAAITSGGTYYADSVKGRFTISRDNAKNTVYLQMNSLKPEDTAVYYCNRFSYPPSWYDYWGQGTQVTVSS,low polyreactivity
11,QVQLVDSGGGLVQAGGSLRLTCAASGSTYYRNAMGWYRQAPGKETEFVAAISFRGGGTYADSVKGRFTISRDNAKNTVYLQMNSLKPDDTAVYYCDSDHLSYRRRYEYWGQGTKVTVSS,low polyreactivity
12,QVQLVDSGGGLVQAGGSLRLSCAASGSTIKYYAMGWYRQEPGKERELVAAINWSGDSTYYADSVKGRFTISRDYAKITVYLQKISLKPEDTAVYYCAVRYQKRAYYGSNYWGQGTQVTVSS,high polyreactivity
13,QVQLVESGGGLVQAGGSLRLSCAASGSLFYINAMGWYRQAPGKERELVAAITSDGSTYYADSVKGRFTISRDNAKNTVYLQMNSLKPEDTAVYYCAADLTSDQYLYYWYWFYSWGQGTQVTVSS,low polyreactivity
14,QVQLVDSGGALVQAGGSLRLICAASGSTFIINAMGWYRQAPGKDRELVAAISGRGTRTYYADSVKGRFTISRDNAKNSVYLQMKSLKPEDTAVYYCNAVRSLSFTTEHDYWGQGTQVTVSS,high polyreactivity
15,QVQLVESGGGLVQAGGSLRLSCAASGSIFPSYAMGWYRQAPGKERELVATISGSGTRTYYADSVKGRFTISRDNAKYTFYLQMNSLKPEDTAVYYCAAETHVESGSRDFYTEDYWGQGTQVTVSS,low polyreactivity
16,QVQLVESGGGLVQAGGSLRLSCAASGRTFGVYAMGWYRQAPGKERELVAAISRRAGNTYYADSVKGRFTISRDNAKNTVYLQMNSLKPEDTAVYYCAADFSRQYGYWGQGTQVTVSS,high polyreactivity
17,QVQLVESGGGLVQAGGSLRLSCAASGYIFSYNAMGWYRQAPGKERELVAAITASGGGTYYADSVKGRFTISRDNAKNTVYLQMNSLKPDDTAVYYCAATPYSTQGLRPKFDYWGQGTQVTVSS,low polyreactivity
18,QVQLVESGGGLVQAGGSLRLSCAASGRTFGYNVMGWYRQAPGKARELVAGIRYSGGSTYYADSVKGRFTISRDNAKNTVYLQMNSLKPEDTAVYYCHAVDRNQYDYWGQGTQVTVSS,high polyreactivity
19,QVQRVETGGVLVQAGGSLRLSCAASGRIFINDMGWYRQAHGKEMELVAAIRSDGSTNYADSVKGRFTFSRDTAKNTVYLQMNSLKPEDTAVYYCNVDGYYLFVRGYEYWGQGTQVTVSS,low polyreactivity
20,QVQLVESGGGLVQAGGSLRLSCAASGRTFVTYAKGWYRQAPGKERELVAAISASGGSTYYADSVKGRFTISRDNAKNTVYLQMNSLNPEDTAVYYCAKTYFLATPYGYWGQGTQVTVSS,low polyreactivity
21,QVQLVESVGGLVQAGGSLPLSCAASGFTFSDYAMGWYRQAPGKESELVAGISSGGYTNYADSVKGRFTISRDNAKNTVYLQMNSLKPEDTAVYYCAAAYYSKFGYWGKGTQVTVSS,high polyreactivity
22,QVQLVESGGGLVQAGGSLRLSCAASGSIFPSNTMGWYRQAPGKERELVATIRWNTGSTYYADSVKGRFTISRDNAKNTVYLQMNSLKPEDTAVYYCAALYVWLWGYRFDYWGQGTQVTVSS,high polyreactivity
